# Target: sulfite reductase tagged with a C-terminal GFP S11 (SEQ ID NO: 16)
# Assay: cell-based or functional assay
substance,measurement,value
"Split-CFP S1-10 (D19E, D21E, Y66W, H148D, T205S)",Final Fluorescence (Ident. A2),4110
same,Final Fluorescence (Ident. A3),1990
same,Final Fluorescence (Ident. A6),5000
same,Final Fluorescence (Ident. A8),2360
same,Final Fluorescence (Ident. A9),4990
same,Final Fluorescence (Ident. A10),4930
same,Final Fluorescence (Ident. B1),4790
same,Final Fluorescence (Ident. B2),3260
same,Final Fluorescence (Ident. B3),2360
same,Final Fluorescence (Ident. B4),1760
same,Final Fluorescence (Ident. B5),2740
same,Final Fluorescence (Ident. B6),2950
same,Final Fluorescence (Ident. C2),2250
same,Final Fluorescence (Ident. C3),2200
same,Final Fluorescence (Ident. C5),2540
same,Final Fluorescence (Ident. C9),1830
same,Final Fluorescence (Ident. D5),2420
same,Final Fluorescence (Ident. D9),1340
same,Final Fluorescence (Ident. D12),3130
same,Final Fluorescence (Ident. E1),4830
same,Final Fluorescence (Ident. E2),1690
same,Final Fluorescence (Ident. E3),1980
same,Final Fluorescence (Ident. E5),1800
same,Final Fluorescence (Ident. E6),2560
same,Final Fluorescence (Ident. F1),4070
same,Final Fluorescence (Ident. F2),1800
same,Final Fluorescence (Ident. F3),2290
same,Final Fluorescence (Ident. F4),1540
same,Final Fluorescence (Ident. F5),2900
same,Final Fluorescence (Ident. F7),2850
same,Final Fluorescence (Ident. F9),2710
same,Final Fluorescence (Ident. G1),4400
same,Final Fluorescence (Ident. G3),2410
same,Final Fluorescence (Ident. G6),2580
same,Final Fluorescence (Ident. G7),2130
same,Final Fluorescence (Ident. H1),4140
same,Final Fluorescence (Ident. H4),2360
same,Final Fluorescence (Ident. H7),3870
same,Final Fluorescence (Ident. H8),2820
same,Initial Rate (Ident. A2),14100
same,Initial Rate (Ident. A3),8810
same,Initial Rate (Ident. A6),18800
same,Initial Rate (Ident. A8),11700
same,Initial Rate (Ident. A9),17700
same,Initial Rate (Ident. A10),16900
same,Initial Rate (Ident. B1),15700
same,Initial Rate (Ident. B2),11900
same,Initial Rate (Ident. B3),8260
same,Initial Rate (Ident. B4),9110
same,Initial Rate (Ident. B5),10300
same,Initial Rate (Ident. B6),10600
same,Initial Rate (Ident. C2),7890
same,Initial Rate (Ident. C3),7950
same,Initial Rate (Ident. C5),9490
same,Initial Rate (Ident. C9),7200
same,Initial Rate (Ident. D5),8850
same,Initial Rate (Ident. D9),7490
same,Initial Rate (Ident. D12),12000
same,Initial Rate (Ident. E1),11700
same,Initial Rate (Ident. E2),7780
same,Initial Rate (Ident. E3),6770
same,Initial Rate (Ident. E5),6370
same,Initial Rate (Ident. E6),9260
same,Initial Rate (Ident. F1),9890
same,Initial Rate (Ident. F2),6690
same,Initial Rate (Ident. F3),7600
same,Initial Rate (Ident. F4),7760
same,Initial Rate (Ident. F5),10200
same,Initial Rate (Ident. F7),10000
same,Initial Rate (Ident. F9),9770
same,Initial Rate (Ident. G1),11000
same,Initial Rate (Ident. G3),10800
same,Initial Rate (Ident. G6),11900
same,Initial Rate (Ident. G7),9680
same,Initial Rate (Ident. H1),10000
same,Initial Rate (Ident. H4),10400
same,Initial Rate (Ident. H7),12900
same,Initial Rate (Ident. H8),10900
"Split-CFP S1-10 (D19E, D21E, Y66W, H148D, T205S, S208L)",Final Fluorescence (Ident. C4),2270
same,Final Fluorescence (Ident. G5),1360
same,Initial Rate (Ident. C4),7790
same,Initial Rate (Ident. G5),6070
"Split-CFP S1-10 (D19E, D21N, Y66W, H148D, T205S)",Final Fluorescence (Ident. A7),2550
same,Final Fluorescence (Ident. C6),1120
same,Final Fluorescence (Ident. C7),1730
same,Final Fluorescence (Ident. C8),1010
same,Final Fluorescence (Ident. C10),1720
same,Final Fluorescence (Ident. D7),744
same,Final Fluorescence (Ident. D10),1200
same,Final Fluorescence (Ident. E8),1140
same,Final Fluorescence (Ident. G2),1910
same,Final Fluorescence (Ident. G8),1420
same,Final Fluorescence (Ident. G9),1700
same,Final Fluorescence (Ident. H3),2130
same,Final Fluorescence (Ident. H5),2000
same,Final Fluorescence (Ident. H9),1340
same,Initial Rate (Ident. A7),8100
same,Initial Rate (Ident. C6),3590
same,Initial Rate (Ident. C7),6280
same,Initial Rate (Ident. C8),4550
same,Initial Rate (Ident. C10),6180
same,Initial Rate (Ident. D7),3120
same,Initial Rate (Ident. D10),4290
same,Initial Rate (Ident. E8),5330
same,Initial Rate (Ident. G2),3790
same,Initial Rate (Ident. G8),9440
same,Initial Rate (Ident. G9),7820
same,Initial Rate (Ident. H3),6870
same,Initial Rate (Ident. H5),5750
same,Initial Rate (Ident. H9),7800
"Split-CFP S1-10 (D19E, D21N, Y66W, S99T, H148D, T205S)",Final Fluorescence (Ident. B9),703
same,Final Fluorescence (Ident. C12),1740
same,Initial Rate (Ident. B9),2230
same,Initial Rate (Ident. C12),5120
"Split-CFP S1-10 (D19E, Y66W, H148D, T205S) (from UniProt P42212 1-214)",Final Fluorescence (Ident. A5),2860
same,Initial Rate (Ident. A5),9770
"Split-CFP S1-10 (D21E, Y66W, H148D, T205S) (from UniProt P42212 1-214)",Final Fluorescence (Ident. G4),5100
same,Initial Rate (Ident. G4),13000
"Split-CFP S1-10 (D21N, Y66W, H148D, T205S) (from UniProt P42212 1-214)",Final Fluorescence (Ident. A12),990
same,Final Fluorescence (Ident. B12),1790
same,Initial Rate (Ident. A12),3060
same,Initial Rate (Ident. B12),4900
"Split-CFP S1-10 (D21N, Y66W, T205S) (from UniProt P42212 1-214)",Final Fluorescence (Ident. F12),868
same,Initial Rate (Ident. F12),1980
"Split-CFP S1-10 (V16I, D19E, D21E, Y66W, H148D, T205S)",Final Fluorescence (Ident. B8),1640
same,Final Fluorescence (Ident. B10),3340
same,Final Fluorescence (Ident. D2),3360
same,Initial Rate (Ident. B8),8930
same,Initial Rate (Ident. B10),11500
same,Initial Rate (Ident. D2),11500
"Split-CFP S1-10 (V16I, D21E, Y66W, T205S) (from UniProt P42212 1-214)",Final Fluorescence (Ident. E12),1070
same,Initial Rate (Ident. E12),2040
"Split-CFP S1-10 (Y66W, H148D, T205S) (from UniProt P42212 1-214)",Final Fluorescence (Ident. D1),8860
same,Final Fluorescence (Ident. D4),3740
same,Final Fluorescence (Ident. D6),4100
same,Final Fluorescence (Ident. D8),3750
same,Final Fluorescence (Ident. E4),3280
same,Final Fluorescence (Ident. F8),1310
same,Final Fluorescence (Ident. H2),6570
same,Initial Rate (Ident. D1),14500
same,Initial Rate (Ident. D4),7990
same,Initial Rate (Ident. D6),10000
same,Initial Rate (Ident. D8),8440
same,Initial Rate (Ident. E4),7280
same,Initial Rate (Ident. F8),3820
same,Initial Rate (Ident. H2),9060
"Split-CFP S1-10 (Y66W, T205S) (from UniProt P42212 1-214)",Final Fluorescence (Ident. G12),382
same,Final Fluorescence (Ident. H12),425
same,Initial Rate (Ident. G12),3740
same,Initial Rate (Ident. H12),3600
"Split-CFP plate clone F6 (D19E, D21E, H148D, T205S) (from UniProt P42212 1-214)",Final Fluorescence (Ident. F6),2910
same,Initial Rate (Ident. F6),10900
"Split-YFP S1-10 (C70S, T203Y) (from UniProt P42212 1-214)",Green Fluorescence (488/510) (clone F3),10.5
same,Ratio Yellow/Green Fluorescence (clone F3),11.4
same,Yellow Fluorescence (510/532) (clone F3),120
"Split-YFP S1-10 (R80K, T203Y) (from UniProt P42212 1-214)",Green Fluorescence (488/510) (clone H1),7.41
same,Ratio Yellow/Green Fluorescence (clone H1),18.7
same,Yellow Fluorescence (510/532) (clone H1),138
"Split-YFP S1-10 (S99F, T203Y, T205S) (from UniProt P42212 1-214)",Green Fluorescence (488/510) (clone G11),7.47
same,Ratio Yellow/Green Fluorescence (clone G11),18.9
same,Yellow Fluorescence (510/532) (clone G11),141
"Split-YFP S1-10 (T9N, T65L, T203Y, T205S) (from UniProt P42212 1-214)",Green Fluorescence (488/510) (clone C5),5.07
same,Ratio Yellow/Green Fluorescence (clone C5),20.9
same,Yellow Fluorescence (510/532) (clone C5),106
"Split-YFP S1-10 (T65A, T203Y, T205S) (from UniProt P42212 1-214)",Green Fluorescence (488/510) (clone C4),7.17
same,Ratio Yellow/Green Fluorescence (clone C4),10.6
same,Yellow Fluorescence (510/532) (clone C4),76.2
"Split-YFP S1-10 (T65G, P192H, T203Y, T205S) (from UniProt P42212 1-214)",Green Fluorescence (488/510) (clone D3),7.15
same,Ratio Yellow/Green Fluorescence (clone D3),17.9
same,Yellow Fluorescence (510/532) (clone D3),128
"Split-YFP S1-10 (T65G, S99F, T203Y, T205S) (from UniProt P42212 1-214)",Green Fluorescence (488/510) (clone E11),4.51
same,Ratio Yellow/Green Fluorescence (clone E11),22.5
same,Yellow Fluorescence (510/532) (clone E11),101
"Split-YFP S1-10 (T65G, T203Y) (from UniProt P42212 1-214)",Green Fluorescence (488/510) (clone A9),4.5
same,Green Fluorescence (488/510) (clone B2),5.85
same,Green Fluorescence (488/510) (clone E7),6.91
same,Ratio Yellow/Green Fluorescence (clone A9),24.3
same,Ratio Yellow/Green Fluorescence (clone B2),19.5
same,Ratio Yellow/Green Fluorescence (clone E7),17
same,Yellow Fluorescence (510/532) (clone A9),109
same,Yellow Fluorescence (510/532) (clone B2),114
same,Yellow Fluorescence (510/532) (clone E7),117
"Split-YFP S1-10 (T65L, V176I, T203Y, T205S) (from UniProt P42212 1-214)",Green Fluorescence (488/510) (clone A7),2.77
same,Ratio Yellow/Green Fluorescence (clone A7),28.5
same,Yellow Fluorescence (510/532) (clone A7),79.1

# Source: patent US20120282643A1
